Experimental data published in patent US20150266963A1 (ARGEN X B V, published 2015).

T1: human CD70 expressed on the surface of cells (human, UniProt P32970 1-193)
T1 sequence (looked up): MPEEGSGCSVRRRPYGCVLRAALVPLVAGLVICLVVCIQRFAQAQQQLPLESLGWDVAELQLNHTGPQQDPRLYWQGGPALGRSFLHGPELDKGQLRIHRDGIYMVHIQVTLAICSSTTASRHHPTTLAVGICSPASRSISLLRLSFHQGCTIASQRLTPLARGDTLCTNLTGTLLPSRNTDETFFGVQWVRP

T2: recombinant human CD70 (Flag-TNC-CD70) (human, UniProt P32970 39-193)
T2 construct: extracellular domain; Captured by anti-Flag mAb in ELISA; as 'recombinant human CD70' immobilised on Biacore CM5 chips; TNC is for trimerisation; also called recombinant CD70; human recombinant CD70; not shown: Flag tag and TNC trimerisation domain
T2 sequence (looked up): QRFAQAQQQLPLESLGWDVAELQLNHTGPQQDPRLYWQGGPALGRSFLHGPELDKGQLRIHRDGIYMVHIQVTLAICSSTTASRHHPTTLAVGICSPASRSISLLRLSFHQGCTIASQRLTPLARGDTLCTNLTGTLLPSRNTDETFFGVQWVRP


Legend:
[1] = molecular target: T1, human CD70 expressed on the surface of …; test: cell-based or functional assay
[2] = molecular target: T1, human CD70 expressed on the surface of …; test: flow cytometry on MHH-PREB-1 cells; anti-human IgG-FITC
Experimental: In a further experiment, NHL-derived MHH-PREB-1 cells (1W cells) were incubated with a concentration gradient of chimeric llama-human CD70 inhibiting mAbs (20 μg/ml-0.25 ng/ml) and binding of the mAbs to the cells was detected using anti-human IgG-FITC antibody.

[3] = molecular target: T2, recombinant human CD70 (Flag-TNC-CD70); test: inhibition ELISA; Flag-TNC-CD70 captured by anti-Flag mAb; competitor CD27-Fc
Experimental: From selected phage transfected into TG1, individual colonies were picked randomly for growth in 96 well plates. After IPTG induction according to standard protocols periplasmic fractions (penis) containing Fabs were prepared. […] In this assay, Flag-TNC-CD70 is captured by an anti-Flag mAb and binding of CD27-Fc is detected via a biotinylated anti-CD27 mAb and strep-HRP in the absence or presence of CD70 Fabs (FIGS. 2 and 3) or CD70 mAbs (FIG. 4). In FIG. 2B it can be seen that 27B3, which has an identical VH as 9D1, but contains a somewhat different light chain, seems to block binding of CD27 to CD70 more efficiently, which was in line with the better off rate of this Fab as measured on Biacore (data not shown). Table 3 indicates the blocking potency (expressed as IC50) for the various llama-human chimeric mAbs tested in the CD70 inhibition ELISA. […] FIG. 3 is a composite of an experiment testing llama CD70 Fabs for blocking activity (in the inhibition ELISA, see white bars) and for CD70 binding (binding ELISA, black bars). For the binding ELISA, Flag-TNC-CD70 is captured by an anti-Flag mAb and binding of the Fabs is detected using an anti-myc-HRP mAb, which recognizes the MYC tag fused to the C-terminus of the Fd fragment. For comparison purposes, known monoclonal antibodies to CD70 (SGN70 described in US 2010/0129362 A1, clone 1F6; and MDX69A7 described in WO2008/074004 FIGS. 5A and 5B) were tested in parallel. […] Of interest is clone 59D10, which as Fab has no blocking activity, but when converted into a chimeric IgG was antagonistic (see Table 3). Amino acid sequences of the VH and VL domains of binding and blocking llama-derived Fab clones are shown elsewhere herein (Tables 6-9).

[4] = molecular target: T2, recombinant human CD70 (Flag-TNC-CD70); test: Biacore; recombinant human CD70 on CM5 chip; Fab from papain digestion
Experimental: Recombinant human CD70 was immobilized on a CM5 Biacore chip. The immobilization was performed in accordance with a method provided by Biacore and by using the NHS/EDC kit (Biacore AB): after activation of the chip, a solution of 50 μg/ml of recombinant CD70 in 10 mM acetate buffer with pH of 5 was prepared and 1 μl of this solution (50ng) was injected resulting in a surface density of approximately 1000 RU.
Fabs were prepared for the CD70 mAbs ARGX-110, MDX1411 and SGN70 by papain digestion. These Fabs, at a concentration of approximately 100-400 μg/ml, were diluted 6-fold in HEPES-buffered saline (0.1M HEPES, 1.5M NaCl, 30 mM EDTA, 0.5% v/v surfactant P20). They were injected (30 μl) and passed through the flow cells at a flow rate of 30 μl/min. After binding of the Fab to CD70, the off-rate was monitored for a period of 10 minutes. After dissociation, the flow cell surfaces were regenerated by injecting 5 μl of 10 mM NaOH. Sometimes multiple injections of NaOH were needed to regenerate the surfaces depending on the affinity of the Fabs. Off-rate analysis was done by applying the BIAevaluation software. First, the sensogram of the blank runs were subtracted from those obtained with the coated flow cell.

[5] = molecular target: T1, human CD70 expressed on the surface of …; test: cell-based or functional assay; remark: listed apart in the source
[6] = molecular target: T1, human CD70 expressed on the surface of …; test: flow cytometry on 786-O cells, anti-human Fc-FITC
Experimental: Fluorescence of 10,000 cells/condition was measured using a flow cytometer and the median fluorescence was plotted.

[7] = molecular target: T3, rhesus recombinant CD70 (FLAG-TNC-rhesus CD70) (rhesus); test: inhibition ELISA; FLAG-TNC-rhesus CD70; competitor CD27-Fc
T3 construct: also called rhesus Flag-TNC-CD70
Description: In this assay, Flag-TNC-CD70 is captured by an anti-Flag mAb and binding of CD27-Fc is detected via a biotinylated anti-CD27 mAb and strep-HRP in the absence or presence of CD70 Fabs (FIGS. 2 and 3) or CD70 mAbs (FIG. 4). In FIG. 2B it can be seen that 27B3, which has an identical VH as 9D1, but contains a somewhat different light chain, seems to block binding of CD27 to CD70 more efficiently, which was in line with the better off rate of this Fab as measured on Biacore (data not shown). Table 3 indicates the blocking potency (expressed as IC50) for the various llama-human chimeric mAbs tested in the CD70 inhibition ELISA. […] FIG. 3 is a composite of an experiment testing llama CD70 Fabs for blocking activity (in the inhibition ELISA, see white bars) and for CD70 binding (binding ELISA, black bars). For the binding ELISA, Flag-TNC-CD70 is captured by an anti-Flag mAb and binding of the Fabs is detected using an anti-myc-HRP mAb, which recognizes the MYC tag fused to the C-terminus of the Fd fragment. For comparison purposes, known monoclonal antibodies to CD70 (SGN70 described in US 2010/0129362 A1, clone 1F6; and MDX69A7 described in WO2008/074004 FIGS. 5A and 5B) were tested in parallel. […] Of interest is clone 59D10, which as Fab has no blocking activity, but when converted into a chimeric IgG was antagonistic (see Table 3). […]

Binder	IC50 (ng/ml), IL-8 secretion in Raji / HT1080-CD27 co-culture assay [1] [ng/mL]	EC50 [2] [µg/mL]	IC50 [3] [µg/mL]	koff [4] [s⁻¹]	IC50, IL-8 secretion in Raji / HT1080-CD27 co-culture assay [5] [nM]	EC50 (read off the curve) [6] [µg/mL]	IC50 [7] [µg/mL]
9G2 chimeric llama-human mAb (antibody, human IgG1, V domains shown) VH: QVQLVESGGGLMQPGGSLRLSCAASGFTFSSSAMSWVRQAPGKGLEWVSSIYSDSSYTYYADSVKSRFTISTDNAKNTLYLQMNSLKPDDTAVYYCAGSSDYEGSFASWGQGTQVTVSS VL: QSVVTQPPSLSASPGSSVRLTCTLSSGNSVGNYDISWYQQKAGSPPRYLLYYYSDSVKHQGSGVPSRFSGSSDASANAGLLLISGLQPEDEADYYCSAYKSGSHVFGGGTKLTVLG	3	–	0.04	–	0.02	~0.1	–
57B6 chimeric llama-human mAb (antibody, human IgG1, V domains shown) VH: QLQLVESGGGLVQPGGSLRLSCAASGFSFSHYAMSWVRQAPGKGLEWVSGDNTYDGGTRYQDSVKGRFTISRDNGKNTLYLQMNSLKPEDTAVYYCAKDTGRGIMGEYGMDYWGKGTLVTVSS VL: QTVVTQEPSLSVSPGGTVTLTCGLKSGSVTSSNYPAWYQQTPGQAPRLLIYNTNSRHSGVPSRFSGSISGNKAALTITGAQPEDEADYYCALYMGSGSANAMFGGGTHLTVLG	5	0.083	0.154	–	–	–	0.135

Results, then the binder that gave them:

IC50 (ng/ml), IL-8 secretion in Raji / HT1080-CD27 co-culture assay [1] [ng/mL]	EC50 [2] [µg/mL]	IC50 [3] [µg/mL]	koff [4] [s⁻¹]	IC50, IL-8 secretion in Raji / HT1080-CD27 co-culture assay [5] [nM]	EC50 (read off the curve) [6] [µg/mL]	IC50 [7] [µg/mL]	Binder
10	0.074	0.107	–	–	–	–	59D10 chimeric llama-human mAb (antibody, human IgG1, V domains shown) VH: EVQLVESGGGLVQPGGSLRLSCAASELSFSISEMTWVRQAPGKGLEWVSGISGVTGGSSTSYADSVKGRFTISRDNDKNTLYLQMNSLIPEDTAVYYCATTSGTYYFIPEYEYWGQGTQVTVSS VL: QSVLTQPPSVSGSPGKTVTISCAGTSSDVGYGYYVSWYQQFPGMAPKLLIYDVNKRASGIADRFSGSKAGNTASLTISGLQSEDEADYYCASYRSSANAVFGGGTHLTVLG
–	–	–	0.00014	–	–	–	ARGX-110 Fab (Fab, V domains shown) VH: EVQLVESGGGLVQPGGSLRLSCAASGFTFSVYYMNWVRQAPGKGLEWVSDINNEGGTTYYADSVKGRFTISRDNSKNSLYLQMNSLRAEDTAVYYCARDAGYSNHVPIFDSWGQGTLVTVSS VL: QAVVTQEPSLTVSPGGTVTLTCGLKSGSVTSDNFPTWYQQTPGQAPRLLIYNTNTRHSGVPDRFSGSILGNKAALTITGAQADDEAEYFCALFISNPSVEFGGGTQLTVLG
